Results taken from the DeepSol protein solubility set.

assay: soluble on expression in E. coli; label from the status in PepcDB or PDB records

Soluble on expression in E. coli, not soluble:
MGSDKIHHHHHHMNFKQLNYFLVVAEEGQITSAAKRLFVGQPALSYQLKQLEEELGAKLFIRQPYGIELTEAGKKLRDYAGQILTLAQNVQTEITELDRGGWGRVKLGSVSSSIGELPSAKLTAFARQHPGVSFDIYEDNTFGILDKLQGNLLDLAIVRTPYNRVNLNFVDISDEPMTAVTCQDFFPGKGKVGLQDLAGQPLVIYRRFEDMFKEAFAEKGLTPNFVVKCDDSRTAIRWSDSGLGIALVPESIAKTYARGHIYPIDLAKWRTRLQLVWRKDRVVTPLMRQIIALYAK
MGSDKIHHHHHHMNFYRDATWVLEDIEKEAAKERISGSMQTLVLKSCKRYKLKSNPKHIYAVLDSCWKYKPYLEKVMKKAHILEDIPKKKGKPLFSRLTLLLLCHDLLLSKQKRIQMGKHPIKDYVLKFKSPLHSEMVKLKLKLKVRELSELVLSEDISNDLPPVRWIRINPLKCHPNGETEPVLAELRKKFTLKVDKWSELVPGSIYYDEFIPNLFGIHPSDKITAHELYKHGKIIIQDRASCFPAHILNPGPSDIVIDSCSAPGNKTTHTASYIYPEPPKDNNTRIYAFEKDPERAKVLQKMIKIAGCSPNISVNVGDFTKLATPEKYKDVTCFIVDPSCSGSGIFGRKFFDSFNRRKIDDKDDDGGIVPDEQEEFIAKEELQTRLAKLSSFQFQMVKHAMSFPAAKKIVYSTCSIHAEENERVVIDLLLDKSVREWGWKVAPKREVIPSWPRRGKVEEFEEVFRDGVTYDPQQLAEGCIRALPKSDGGIGFFAVCFERD
MGSDKIHHHHHHMNGFSQLEGLRGHPSVVRVIGHRGARGVMPENTLEGFAFTLAAGVRALEFDVVMTADGVPVVTHNHHLANAMTRDGQGHWLTGAERQVAEMTYAEIRALDVGGLDGRTVYGRRFPDQAFLTGIHVPRLGELLDLCAGYGDQAPYLLLELKSDPALMHDHAARAEMVAAVLADVRRYRMEPRTVMHSFDWALLGECRRQAPDLPTSYLSQLPENADDPGEDSAKPVGPDYDRMTESLPQAVASAGGQLWCPYFLDVTPELVAEAHDLGLIVLTWTVNEPEDIRRMATTGVDGIVTDYPGRTQRILIDMGLSWT
MGSDKIHHHHHHMNGLFVLAYAITNLHPGAGRGYGIVDMPVQRDQMGYPIIYSSAFKGPLKALCAGDAINDHGRIDCKKKGECCCLFGSEPEEEESSKGMLNVMDLPLFSVPAPTFDGFVQVTTNYLIDRARNIFEAISHINGYLGSLGNEIKALLDAQGNKSVEVYDTEAKVVNFDPSSFKLLSSLPLFNNRLAISDDKRVIDKSLIIYTRNRLNLLTKVVEEGGLWSEEYIPMGSIFIGGMIIDNVRNKFCDELSKISCDSRLFLHHFSRIFNADKISEDVYLFYLNIGGKESIGKGLMKVFIGV
MGSDKIHHHHHHMNHLLKQAKRVASECECGHEHQWIEMDELQLGRNAINYLPEYLHEKGLLHVTIVADANTYAVAGQLVAQLLKGRGIDVENCILKEQGALTLLADEHGLGQLVIGAAKETDVFLAVGAGTIHDLTRIASYKFGKPFIAIPTAPSVDGFTSMGAPVIRDGVKITFQTQAPIALFADLDFLTQAPRSMVAAGFGDMLGKSTSLVDWQVSHMLNDEPFCPAVFHMTKSALTMCMEHADEIAACNEQGIRLLTEALIMSGLAMLIFGHSHPASGAEHHLSHYWEMAFLRSGGTQPLHGAKVGYATMLISALYKNEARKKIETFQGEGSPLVNSIHKHRERLLMLIDTIPESSDIQRLLESVGGAVKSADLALADSLEDEALEKAHKLRERCTLLYCLNEHLKTS
MGSDKIHHHHHHMNIIKSFNSTIDYLETVLDDEIDEKKVTRISGYSYSMFSRLFSILTEMTLSEYLRSRRLTEAAIILRDTDEKIIDVAFKFGYESSDSFGTAFKNFHGFTPSEVRIGKPFKLVSRVQLALSVRGGRSMNIRIQKKKAFTVAGVNQQNINSSICASLWQKLFSKVSHEEMLNLGTGEVVGVCHDILSLDNHDVLDSNTINYMAGYIVTDVDKARSMGLDILEIGETEYAVVELTGSVPECIHNGWKYAMEVFFPEHGYVHSGKPDFEYYYEGDMYSKDYKMELWIPVCKS
MGSDKIHHHHHHMNITASFRDASLVAFDFPEILTRISKIIDALKAHDDSLRYENWMLKGDNQEDATRYHVYDAAGIATPAALAVLREEFRNSKDFTYVAMWDGNLASDNGASISCHVGDKSLPDTLTLRIEGERWKAYAAISGIVSTMVTIFSPALVEVSFDEYAVKQVFDDKPGVGWMLYLPKVITQQQVPEARALIPVPAKGKQTGTIIISVTDAPFSVDNPEHVAIANRIEIRLVDQDLLPAYVDI
MGSDKIHHHHHHMNIVSQLSPVTLSPELIARFTAIVGDKHALTDPLELEAYITEERNLYRGHSPLVLRPGSTEEVVAICKLANEARVALVPQGGNTGLVGGQTPHNGEVVISLKRMDKIREIDTSSNTITVEAGAILQRVQEKAAEVDRLFPLSLGAQGSCTIGGNLSTNAGGTAALAYGLARDMALGVEVVLADGRVMNLLSKLKKDNTGYDLRDLFIGAEGTLGIITAATLKLFPKPRAVETAFVGLQSPDDALKLLGIAQGEAAGNLTSFELIAETPLDFSVRHANNRDPLEARYPWYVLIELSSPRDDARAALESILERGFEDGIVVDAAIANSVQQQQAFWKLREEISPAQKPEGGSIKHDISVPVAAVPQFIEQANAAVVALIPGARPVPFGHLGDGNIHYNVSQPVGADKAEFLARWHDVSQVVFEVVLRLGGSISAEHGIGVMKRDELAEVKDKTAIELMRSIKALLDPHGIMNPGKVV
MGSDKIHHHHHHMNKAERQNLIITAIQQNKKMTALELAKYCNVSKRTILRDIDDLENQGVKIYAHYGKNGGYQIQQAQSKIALNLSETQLSALFLVLNESQSYSTLPYKSEINAIIKQCLSLPQTRLRKLLKRMDFYIKFDDTQHMTLPMLFSDILIYCTERNVMLVDHRVDDNIKAENVIFIGLLCKHGHWHAVIYDIAQDKTAELEIENIIDISYSFGKTIQTRDISIDNYHQFLNPIDS
MGSDKIHHHHHHMNKIAPAEIASMLNDWYLAIKKHEVEESSRLFEEVKPLLDDMEEDQEVLAYFSLLELRHKVLLHEARGQGFQHEEPSHMNATSDMLKYYFFLFEGMYEAYKNNYDIAIGLYKDAEQYLDNIPDPIEKAEFHLKVGKLYYKLGQNIVSLNHTRQAVKTFREETDYKKKLASALITMSGNFTEMSQFEEAEAYLDEAIRITSELEDHFFEAQLLHNFGLLHAQSGKSEEAVSKLEEALQNDEYARSAYYYHSAYLLIRELFKIKKKEQALSYYQDVKEKLTAEPNRICEAKIDILYAIYAEGGHAETFHLCKQHMDDLLSEKEYDSVRELSILAGERYRELELYKEAAHFFYEALQIEELIKRTEVI
MGSDKIHHHHHHMNLKTTLGLLAGRSSHFVLSRLGRGSTLPGKVALQFDKDILQNLAKNYEIVVVTGTNGKTLTTALTVGILKEVYGQVLTNPSGANMITGIATTFLTAKSSKTGKNIAVLEIDEASLSRICDYIQPSLFVITNIFRDQMDRFGEIYTTYNMILDAIRKVPTATVLLNGDSPLFYKPTIPNPIEYFGFDLEKGPAQLAHYNTEGILCPDCQGILKYEHNTYANLGAYICEGCGCKRPDLDYRLTKLVELTNNRSRFVIDGQEYGIQIGGLYNIYNALAAVAIARFLGADSQLIKQGFDKSRAVFGRQETFHIGDKECTLVLIKNPVGATQAIEMIKLAPYPFSLSVLLNANYADGIDTSWIWDADFEQITDMDIPEINAGGVRHSEIARRLRVTGYPAEKITETSNLEQVLKTIENQDCKHAYILATYTAMLEFRELLASRQIVRKEMN
MGSDKIHHHHHHMNLNPIINNFQRPIRKVQICCILIFSCAACSLNIPYENQYSDPDAITTVTAARELLASAYDAIPKPEFSLSVLSDDFQPTFLINLNADLNNLYKWHPKPMEDLSNSLWEKYYSAIAIANTVLERIHYVSPISDSDKQELQCIVSEAKTLKAYCYFNLLRLFAPTYPEGPEKDGIILKERFELAFLKRSSISECVNAIRQLLTEAVTVDNRPSQVYWFSRQSAYYLLAALELYAENYDKAEEYALKILSSTNAYNVLAPVHYKKLWEQEPCEECIFSLHTTNSYYTDMNYERKKGDYFTINSTLTQLYTANDIRYEATVYPQEMPGESIGETLPVLYLGKYNKQNWNYKPIQYINKLRVSGICFILAEAYCQDQKGHDALALEVINNYLAQREAPLLDTSLSGAPLLKAILQEKWKEFAGEGERYFDLKRYRKSLLSDWNLSATMKNKPIKPDDYRWLFPIPKGEYLYNENISQNAGWTKVEK
MGSDKIHHHHHHMNLRRLKYFIKIVDVGSLTQAADILHIAQPALSQQLATLEGEVNQKLLIRTKRGVTPTNAGKILYSHAQAILRQCAQAQSAIDRAGGELSGSVSVGLAPGTAAQQLALPLMAEVQRQYPGIVLYFNENFGTTLSELIMNGRMDMAVIYDNRNIHGLRFIPLMKEPLCFVCPNSLMKPKKEITLAEVAQHNLFLPRIYNIMRKIVDEAFIKEGLTYQVKCEIESQTTLNAVLAAGMGCTIMPDSAARSMLNASNAWMAKIIDPDIYASLSFCMSDHLSLSEPAEVVKNILLSLMADRTPDNRPLTLVS
MGSDKIHHHHHHMNMNREQLKFCLLGAVFLFGGCTASDPRTHLDSSADTLFQITPDQNHAALERQSGTDQYLKLLLNVAEDAEVKEVQVKPGLVSKDTATLSMPLTDGRTVSFKLSRSDSVASGMVGWVGDMPSNRRQLYPSPAEIDMDPLNWVSLVSDGNLVVGDIRVDGQLYRLTAVGKGQQVLVKVDESKLPPEAAPIPVPVQAQEKTRSLSTSQSRKSTIRVLFVTTHQSRAMFPNYKIELAQALQNANQYLINSKVDAVYELSDIYDSDYDETGKSPQTQLSDMKADKPFGAKIHIEREKGRADLVSMLSTFSIYCGIANLTASVERAFSAISCFGSLGHELGHNMGAGHKDEAPVASLPPYAYGYQHTAPNFHTQMRTSNGAIPYHSNPRLQYQGVPMGTVDKNDVARTFNENRDTVANFYPDPAHRVRLWLYGANRGCFIDLKPGEQALLSWFTECKDNDVNPVRVEVKDFYSGSTPRKLCFANIFYTVNSCYTGSNFSGDFVITSVHTGGGKPEGFKFTRRLIGPVYRVSYE
MGSDKIHHHHHHMNPCGFNKCYIQPSADLSVSLQIVSGKSRASISEIGSHMDSLQIDGLDILLHSYDGSPTHFGSAFLFPYANRVKDARYVMDGVEYRLPNNEGKNSIHGLVLDKNFSVISREEESITMETSIAGGEAYPSDLSVRISHSVDETSYRCEVTVINKGVKRSPIAAGFHPYFVYKNKWAIIKPETAWIMEYDGPFPTGKMDRMTFGDISYLNAYDNQFFADSDIIVDVGYSRLKITRNNMPFFVIYNGRYSAGSSVAIEPMMSAVDSFNNGIGLRLLNPGDTMKFGYSIDIV
MGSDKIHHHHHHMNPNIAKISSLLSDPSRSSILLSLMDGRIHPAGELAYLANIKPQTASFHLNKLLEAKLISVEKHGRHRYYRLADSDAANVIEQLLHIAPKAKVKSLKESKEKKDLHFARTCYDHLAGYVGVQMAHSLVEQGMLKKVDLNFEVTSEGALFFSKLGINEEQQRNKRRAFARCCLDWSERQHHIAGALGNALLVRMLEEEWIVRMPKTRAIRITQSGKIAFEKHLNVKI
MGSDKIHHHHHHMNQYERKMLDLLKRGKQELGYVGVKAEFEAEGTRTDELLRLIELARKAGLNVGLKIGGCEAMRDLMESKQYGVEYIIAPMIESGYALSKFIDAKNKVYSKDEQRDTRFLFNVETKSAFGCMDELVQIAAQPGGADGVVFGRVDFSLSMGLTRDDINDPKVTSYCLEVSEACKRSGLDFVVGGGVSMDALSIMKELNSSHLSRFETRKIIFDAAMMENADVHNGLLQAVHFELLWLLNKREYYSCILKEDAKRIEMLERRWHVLSADEKASTSTYVNQPNI
